Measurements: PMC3355305, “Localized Dimerization and Nucleoid Binding Drive Gradient Formation by the Bacterial Cell Division Inhibitor MipZ” (Molecular Cell, 2012)

System: double-stranded oligonucleotide (ran2)
Experiment: SPR analysis of the interaction between MipZ and DNA
Assay type: binding
Method: Figure S5. Surface plasmon resonance (SPR) analysis of the interaction betw een MipZ and DNA, Related to Figure 4.
(A) Effect of Mg2+ on the DNA-binding activity of MipZ. A double-stranded oligonucleotide (ran2, 700 RU) was immobilized on an SPR sensor chip and probed with MipZ (1 µM). The binding reactions were performed in buffer BC containing the indicated nucleotide (2 mM) and no (ATP + Mg2+) or 10 mM (no nucleotide, ADP, ATP) EDTA, respectively.
(B) DNA-binding specificity of MipZ. A double-stranded oligonucleotide (ran2, 500 RU) was immobilized on an SPR sensor chip and allowed to react with MipZ protein (1 µM) that had been preincubated with 2 mM ATP and a double-stranded oligonucleotide (ran2, 6 µM) (dsDNA), a single-stranded oligonucleotide (top strand of ran2, 6 µM) (ssDNA), an oligoribo-nucleotide (with a sequence analogous to the top strand of ran2, 6 µM) (RNA) or polyphosphate (25 µg/ml) (PP), respectively. A reaction performed in the absence of any competitor served as a control. […]
experimental conditions used (data not shown). The dissociation rate constant determined for the reaction without ParB was […]
obtained from crystals flash frozen in a solution of 95% 2 mM, sa mp le s were taken and analyzed for the amount ethanol/50 mM Tris (pH 8.5), and collected at ID23-2, of [α-32P]-GDP produced in the reaction as described ESRF (Grenoble, France). […]

B1: MipZ: P loop ATPase and cell division inhibitor of Caulobacter crescentus; hexahistidine-tagged in vitro, YFP fusion in FRAP (protein)
chain: MAETRVIVVGNEKGGAGKSTIAVHLVTALLYGGAKVAVIDLDLRQRTSARFFENRRAWLDNKKIELPEPLALNLSDNDVALAERPEEEQVAGFEAAFARAMAECDFILIDTPGGDSAITRMAHGRADLVVTPMNDSFVDFDMLGTVDPVTLELTKPSLYSLTVWEGRKQRALSGQRQAMDWVVLRNRLATTEARNRKRLEDRLNALAKRVGFRIGPGLRDRVIYRELFPFGLTIADLSPQVRPVPVSLQHLAARQELRALMHSLGLSAYSGETMLAAQ
modifications: left off: His6, end not stated, state not stated
notes: hexahistidine-tagged in vitro, YFP fusion in FRAP
rate constant for the dissociation of MipZ from DNA (koff) (MipZ 0.5 µM, 2 mM ATP, without ParB): 0.025 s⁻¹ | half-time t1/2 of dissociation of MipZ from DNA (in vitro): 28 s
